Read-outs that look alike come from different tables or passages of the source.
Columns and labels:
[1] = target: FLAG-tagged BicD2-Kif1bα tail fusion (mouse) (UniProt Q60575); assay: centrosome recruitment assay with BicD2-kinesin tail fusions (relocalisation in cells, microscopy); N2A cells transfected with FLAG-BicD2-KIF tail fusion and EGFP-tagged RBP (2:3), fixed after 24 h, anti-FLAG staining; read-out log2 of the mean EGFP intensity at the centrosome over the mean intensity in the whole cell
Sequence of FLAG-tagged BicD2-Kif1bα tail fusion (mouse) (Q60575 other isoform, or with tags, fused parts or gaps): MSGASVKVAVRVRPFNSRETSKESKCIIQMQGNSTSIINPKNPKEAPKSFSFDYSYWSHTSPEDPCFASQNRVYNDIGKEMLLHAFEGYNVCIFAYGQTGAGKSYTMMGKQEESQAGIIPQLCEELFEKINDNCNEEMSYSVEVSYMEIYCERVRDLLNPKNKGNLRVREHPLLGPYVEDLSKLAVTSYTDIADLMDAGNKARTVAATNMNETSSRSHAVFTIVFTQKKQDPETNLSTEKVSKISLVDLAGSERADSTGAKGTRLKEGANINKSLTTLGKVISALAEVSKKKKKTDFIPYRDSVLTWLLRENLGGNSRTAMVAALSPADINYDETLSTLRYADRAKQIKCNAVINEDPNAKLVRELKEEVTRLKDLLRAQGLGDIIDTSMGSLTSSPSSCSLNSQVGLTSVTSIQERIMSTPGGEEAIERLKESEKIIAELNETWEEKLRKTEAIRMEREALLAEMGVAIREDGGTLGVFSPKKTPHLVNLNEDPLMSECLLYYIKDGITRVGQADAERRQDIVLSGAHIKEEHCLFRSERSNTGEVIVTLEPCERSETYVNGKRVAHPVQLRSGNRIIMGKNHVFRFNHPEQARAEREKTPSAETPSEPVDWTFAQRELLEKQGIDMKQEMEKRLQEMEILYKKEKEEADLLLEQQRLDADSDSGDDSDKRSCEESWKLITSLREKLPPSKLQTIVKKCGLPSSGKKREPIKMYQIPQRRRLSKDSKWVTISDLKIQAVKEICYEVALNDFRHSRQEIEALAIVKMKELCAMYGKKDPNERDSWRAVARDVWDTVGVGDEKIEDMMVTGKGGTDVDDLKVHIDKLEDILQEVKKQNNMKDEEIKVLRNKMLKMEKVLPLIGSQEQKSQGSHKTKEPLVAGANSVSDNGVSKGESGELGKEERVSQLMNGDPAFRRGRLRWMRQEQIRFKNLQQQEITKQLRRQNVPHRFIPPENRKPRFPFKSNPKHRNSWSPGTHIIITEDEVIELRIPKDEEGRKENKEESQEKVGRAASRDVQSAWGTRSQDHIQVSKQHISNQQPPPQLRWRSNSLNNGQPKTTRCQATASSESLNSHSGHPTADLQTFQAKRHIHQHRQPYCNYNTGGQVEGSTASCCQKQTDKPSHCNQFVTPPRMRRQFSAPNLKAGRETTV

[2] = target: FLAG-tagged BicD2-Kif1c tail fusion (mouse) (UniProt O35071); assay: as above
Sequence of FLAG-tagged BicD2-Kif1c tail fusion (mouse) (O35071 whole entry, the tested form may be a part): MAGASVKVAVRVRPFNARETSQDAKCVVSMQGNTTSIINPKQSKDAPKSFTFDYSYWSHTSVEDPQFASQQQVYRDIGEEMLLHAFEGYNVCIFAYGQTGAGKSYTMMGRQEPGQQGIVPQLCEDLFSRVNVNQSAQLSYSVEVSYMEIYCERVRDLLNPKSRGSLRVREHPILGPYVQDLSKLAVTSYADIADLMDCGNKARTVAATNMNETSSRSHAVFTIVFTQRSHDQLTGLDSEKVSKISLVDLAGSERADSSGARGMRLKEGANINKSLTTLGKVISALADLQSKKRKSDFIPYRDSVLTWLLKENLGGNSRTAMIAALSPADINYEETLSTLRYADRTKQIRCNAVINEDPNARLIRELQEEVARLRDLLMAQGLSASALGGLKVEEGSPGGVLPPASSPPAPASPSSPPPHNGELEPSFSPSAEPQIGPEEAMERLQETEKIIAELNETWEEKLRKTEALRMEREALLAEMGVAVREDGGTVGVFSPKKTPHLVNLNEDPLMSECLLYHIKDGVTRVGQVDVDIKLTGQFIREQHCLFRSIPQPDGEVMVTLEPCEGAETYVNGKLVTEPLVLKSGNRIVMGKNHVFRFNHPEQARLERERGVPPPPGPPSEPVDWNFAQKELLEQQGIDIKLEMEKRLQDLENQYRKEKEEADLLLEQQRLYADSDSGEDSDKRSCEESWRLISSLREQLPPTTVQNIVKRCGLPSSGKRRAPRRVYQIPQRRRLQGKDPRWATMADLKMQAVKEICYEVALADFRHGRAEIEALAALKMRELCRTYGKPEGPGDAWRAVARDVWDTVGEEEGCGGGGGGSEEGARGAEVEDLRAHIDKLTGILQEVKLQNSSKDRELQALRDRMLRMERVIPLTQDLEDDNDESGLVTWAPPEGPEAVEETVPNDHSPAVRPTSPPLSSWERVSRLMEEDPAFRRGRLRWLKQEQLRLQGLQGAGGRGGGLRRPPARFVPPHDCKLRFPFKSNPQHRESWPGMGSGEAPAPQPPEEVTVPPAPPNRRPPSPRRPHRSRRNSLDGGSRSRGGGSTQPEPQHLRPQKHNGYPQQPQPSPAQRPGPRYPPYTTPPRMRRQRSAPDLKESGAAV

[3] = target: mScarlet-I-Kif1bα (full-length kinesin) (mouse) (UniProt Q60575); assay: co-IP; N2A cells 48 h after co-transfection of EGFP-MBNL1-41 and mScarlet-Kif plasmids; lysis in 10 mM Tris-HCl pH 7.5, 150 mM NaCl, 0.5 mM EDTA, 0.5% NP-40; RFP-Trap magnetic agarose 1 h at 4 °C; western blot, quantitation normalized to input
Sequence of mScarlet-I-Kif1bα (full-length kinesin) (mouse) (Q60575 other isoform, or with tags, fused parts or gaps): as the sequence (Q60575 other isoform, or with tags, fused parts or gaps) above

[4] = target: mScarlet-I-Kif1c (full-length kinesin) (mouse) (UniProt O35071); assay: as above
Sequence of mScarlet-I-Kif1c (full-length kinesin) (mouse) (O35071 whole entry, the tested form may be a part): as the sequence (O35071 whole entry, the tested form may be a part) above

[5] = target: FLAG-tagged BicD2-Kif1c tail fusion (mouse) (UniProt O35071); assay: centrosome recruitment assay with BicD2-kinesin tail fusions (relocalisation in cells, microscopy); N2A cells transfected with FLAG-BicD2-KIF tail fusion and EGFP-tagged RBP (2:3), fixed after 24 h, anti-FLAG staining; read-out log2 of the mean EGFP intensity at the centrosome over the mean intensity in the whole cell; remark: listed apart in the source

Sequence of EGFP-MBNL1-41 (41 kDa isoform of MBNL1) (natural protein) (Q9NR56 whole entry, canonical isoform): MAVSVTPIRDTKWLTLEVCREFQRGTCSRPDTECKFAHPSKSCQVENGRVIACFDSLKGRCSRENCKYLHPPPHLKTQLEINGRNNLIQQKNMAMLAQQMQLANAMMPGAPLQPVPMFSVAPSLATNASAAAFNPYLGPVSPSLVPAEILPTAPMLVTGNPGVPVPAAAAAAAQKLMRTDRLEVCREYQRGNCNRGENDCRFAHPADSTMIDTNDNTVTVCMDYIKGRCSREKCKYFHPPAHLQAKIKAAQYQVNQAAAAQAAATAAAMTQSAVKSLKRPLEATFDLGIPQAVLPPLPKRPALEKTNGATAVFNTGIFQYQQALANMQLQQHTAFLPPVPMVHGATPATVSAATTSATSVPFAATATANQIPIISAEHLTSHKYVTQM
Sequence of EGFP-Cpsf4 (Q8BQZ5 whole entry): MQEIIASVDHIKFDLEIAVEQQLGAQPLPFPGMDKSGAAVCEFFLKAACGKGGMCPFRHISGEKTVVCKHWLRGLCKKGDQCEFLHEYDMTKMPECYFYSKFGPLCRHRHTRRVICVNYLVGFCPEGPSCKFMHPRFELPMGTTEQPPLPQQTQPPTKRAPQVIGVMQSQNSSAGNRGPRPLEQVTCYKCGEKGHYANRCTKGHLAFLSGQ

Substance: EGFP-Cpsf4 (from UniProt Q8BQZ5 1-211) (natural protein)
- log2 mean centrosome recruitment [1]: 1.71 log2
- log2 mean centrosome recruitment [2]: 1.52 log2

Substance: EGFP-MBNL1-41 (41 kDa isoform of MBNL1) (natural protein)
- fold enrichment of co-precipitated EGFP-MBNL1 as compared to Kif1bβ [3]: 10 fold
- fold enrichment of co-precipitated EGFP-MBNL1 as compared to Kif1bβ [4]: 10 fold
- log2 mean centrosome enrichment [1]: 0.506 log2
- log2 mean centrosome enrichment [2]: 0.56 log2
- log2 mean centrosome enrichment [5]: 0.497 log2

Source: PMC10256740
